This is an account of results in article PMC10988713.

Where a chain is given by its changes, count along the chain named. In names and notes the source's numbering stands.

Substrate in data set [1]: C[C@H](O)CC(=O)SCCNC(=O)CCNC(=O)[C@H](O)C(C)(C)COP(=O)(O)OP(=O)(O)OC[C@H]1O[C@@H](n2cnc3c(N)ncnc32)[C@H](O)[C@@H]1OP(=O)(O)O
Nature of the data set: purified protein. The note with it: 1 mM NAD+, pH 9.0, 50 mM Tris, 50 mM KCl, 25 °C, HAD dehydrogenase reaction. Type of data set: biochemical, Rattus norvegicus.

Substrate in data set [2]: C[C@H](O)CC(=O)SCCNC(=O)CCNC(=O)[C@H](O)C(C)(C)COP(=O)(O)OP(=O)(O)OC[C@H]1O[C@@H](n2cnc3c(N)ncnc32)[C@H](O)[C@@H]1OP(=O)(O)O
Nature of the data set: purified protein. Type of data set: biochemical, Homo sapiens. The note with it: 1 mM NAD+, pH 9.0, 50 mM Tris, 50 mM KCl, 25 °C.

B1: BCDE (Rattus norvegicus) (protein)
chain: ASGQAKALQYAFFAEKSANKWSTPSGASWKTASAQPVSSVGVLGLGTMGRGIAISFARVGISVVAVESDPKQLDAAKKIITFTLEKEASRAHQNGQASAKPKLRFSSSTKELSTVDLVVEAVFEDMNLKKKVFAELSALCKPGAFLCTNTSALNVDDIASSTDRPQLVIGTHFFSPAHVMRLLEVIPSRYSSPTTIATVMSLSKKIGKIGVVVGNCYGFVGNRMLAPYYNQGFFLLEEGSKPEDVDGVLEEFGFKMGPFRVSDLAGLDVGWKIRKGQGLTGPSLPPGTPVRKRGNSRYSPLGDMLCEAGRFGQKTGKGWYQYDKPLGRIHKPDPWLSTFLSQYREVHHIEQRTISKEEILERCLYSLINEAFRILEEGMAARPEHIDVIYLHGYGWPRHKGGPMFYAASVGLPTVLEKLQKYYRQNPDIPQLEPSDYLRRLVAQGSPPLKEWQSLAGPHGSKL
notes: truncated RnMFE1 from Ala260 (ASGQ) to the C-terminus, without domain A (ECH part); N-terminal His6 tag, E. coli BL21(DE3) pLysS
As a reminder, the Km is the concentration of substrate that gives half-maximal velocity. As a reminder, the kcat is the number of substrate molecules converted per active site and unit of time at saturation. As for B1, in “purified protein [1]”, the Michaelis constant (Km) amounted to 5.2 ± 0.9 µM and the kcat was 1.6 ± 0.1 s⁻¹.

B2: HsHAD (Homo sapiens) (protein)
chain: SSSSTASASAKKIIVKHVTVIGGGLMGAGIAQVAAATGHTVVLVDQTEDILAKSKKGIEESLRKVAKKKFAENLKAGDEFVEKTLSTIATSTDAASVVHSTDLVVEAIVENLKVKNELFKRLDKFAAEHTIFASNTSSLQITSIANATTRQDRFAGLHFFNPVPVMKLVEVIKTPMTSQKTFESLVDFSKALGKHPVSCKDTPGFIVNRLLVPYLMEAIRLYERGDASKEDIDTAMKLGAGYPMGPFELLDYVGLDTTKFIVDGWHEMDAENPLHQPSPSLNKLVAENKFGKKTGEGFYKYK
notes: N-terminal His6 tag in pET28a, E. coli BL21(DE3) pLysS, dimer of 35 kDa subunits
On to B2, for which, in the data set “purified protein [2]”, the Km was determined as 19 ± 0.9 µM and the kcat stood at 42 ± 2 s⁻¹.

B3: RnMFE1 (Rattus norvegicus) (protein)
chain: MAEYLRLPHSLAMIRLCNPPVNAVSPTVIREVRNGLQKAGSDHTVKAIVICGANGNFCAGADIHGFSAFTPGLALGSLVDEIQRYQKPVLAAIQGVALGGGLELALGCHYRIANAKARVGLPEVTLGILPGARGTQLLPRVVGVPVALDLITSGKYLSADEALRLGILDAVVKSDPVEEAIKFAQKIIDKPIEPRRIFNKPVPSLPNMDSVFAEAIAKVRKQYPGVLAPETCVRSIQASVKHPYEVGIKEEEKLFMYLRASGQAKALQYAFFAEKSANKWSTPSGASWKTASAQPVSSVGVLGLGTMGRGIAISFARVGISVVAVESDPKQLDAAKKIITFTLEKEASRAHQNGQASAKPKLRFSSSTKELSTVDLVVEAVFEDMNLKKKVFAELSALCKPGAFLCTNTSALNVDDIASSTDRPQLVIGTHFFSPAHVMRLLEVIPSRYSSPTTIATVMSLSKKIGKIGVVVGNCYGFVGNRMLAPYYNQGFFLLEEGSKPEDVDGVLEEFGFKMGPFRVSDLAGLDVGWKIRKGQGLTGPSLPPGTPVRKRGNSRYSPLGDMLCEAGRFGQKTGKGWYQYDKPLGRIHKPDPWLSTFLSQYREVHHIEQRTISKEEILERCLYSLINEAFRILEEGMAARPEHIDVIYLHGYGWPRHKGGPMFYAASVGLPTVLEKLQKYYRQNPDIPQLEPSDYLRRLVAQGSPPLKEWQSLAGPHGSKL
Consider B3, for which, in “purified protein [1]”, the Km worked out at 11 ± 2 µM and the kcat worked out at 1.9 ± 0.3 s⁻¹.

B4: RnMFE1 (Rattus norvegicus; E123A) (protein)
chain: B3 chain with E123A
As to B4, in the data set “purified protein [1]”, the Km came out at 10 ± 0.6 µM and the kcat stood at 2.4 ± 0.1 s⁻¹.
